# Laboratory results taken from patent US20220372107A1.
# Legend:
# TGFβ2 (human) = target: T1, TGFβ2 (human) (UniProt P61812)
# T1 sequence (looked up): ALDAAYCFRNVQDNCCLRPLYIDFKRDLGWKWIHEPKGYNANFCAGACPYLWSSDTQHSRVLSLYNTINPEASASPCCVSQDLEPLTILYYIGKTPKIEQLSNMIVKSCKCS
# activin B = target: T2, activin B (UniProt P09529)
# T2 sequence (looked up): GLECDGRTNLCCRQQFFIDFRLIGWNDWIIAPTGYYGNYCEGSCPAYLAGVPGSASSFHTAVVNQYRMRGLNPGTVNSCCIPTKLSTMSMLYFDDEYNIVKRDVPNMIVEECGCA
# activin A = target: T3, activin A (UniProt P08476)
# T3 sequence (looked up): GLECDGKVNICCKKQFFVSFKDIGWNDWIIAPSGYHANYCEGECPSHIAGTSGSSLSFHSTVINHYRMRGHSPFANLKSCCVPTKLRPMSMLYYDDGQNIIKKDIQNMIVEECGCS
# GDF11 = target: T4, GDF11 (UniProt O95390)
# T4 sequence (looked up): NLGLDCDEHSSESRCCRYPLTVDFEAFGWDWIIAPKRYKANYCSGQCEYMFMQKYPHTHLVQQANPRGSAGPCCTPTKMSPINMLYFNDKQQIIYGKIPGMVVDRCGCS
# BMP10 = target: T5, BMP10 (UniProt O95393)
# T5 sequence (looked up): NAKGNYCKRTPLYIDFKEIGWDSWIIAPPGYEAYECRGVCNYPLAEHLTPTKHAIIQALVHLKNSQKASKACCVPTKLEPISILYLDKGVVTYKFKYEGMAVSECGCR
# TGFβ1 (human) = TGFβ1 (human) (UniProt P01137)
# Sequence of UniProt P01137 (P01137 279-390 limits assumed): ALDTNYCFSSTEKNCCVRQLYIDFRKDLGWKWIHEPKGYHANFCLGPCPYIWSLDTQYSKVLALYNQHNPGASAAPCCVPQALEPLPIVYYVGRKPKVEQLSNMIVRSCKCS
# TGFβ3 (human) = target: T6, TGFβ3 (human) (UniProt P10600)
# T6 sequence (looked up): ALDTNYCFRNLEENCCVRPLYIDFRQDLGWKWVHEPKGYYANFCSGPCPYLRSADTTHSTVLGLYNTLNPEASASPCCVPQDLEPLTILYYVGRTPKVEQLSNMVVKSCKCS
Substance,IC50 (CAGA12 luciferase reporter gene assay) (TGFβ2 (human)) [µg/mL],IC50 (CAGA12 luciferase reporter gene assay) (activin B),IC50 (CAGA12 luciferase reporter gene assay) (activin A),IC50 (CAGA12 luciferase reporter gene assay) (GDF11),IC50 (CAGA12 luciferase reporter gene assay) (BMP10) [µg/mL],IC50 (CAGA12 luciferase reporter gene assay) (TGFβ1 (human)) [nM],IC50 (CAGA12 luciferase reporter gene assay) (TGFβ3 (human)) [nM]
ActRIIA-Fc:TβRII-Fc heterodimer (Fc fusion),> 20,1.16 nM,1.28 nM,18.1 nM,> 20,0.21,0.39
TβRII-Fc homodimer (Fc fusion),> 20,> 20 µg/mL,> 20 µg/mL,> 20 µg/mL,> 20,0.017,
